Source: patent US20080019991A1 (CYTOS BIOTECHNOLOGY, published 2008)

Biological target: T1, recombinant human RANK-hFc fusion protein (human, UniProt Q9Y6Q6 30-212, limits assumed)
T1 construct: also called hRANK; not shown: human Fc (hFc)
T1 sequence (looked up): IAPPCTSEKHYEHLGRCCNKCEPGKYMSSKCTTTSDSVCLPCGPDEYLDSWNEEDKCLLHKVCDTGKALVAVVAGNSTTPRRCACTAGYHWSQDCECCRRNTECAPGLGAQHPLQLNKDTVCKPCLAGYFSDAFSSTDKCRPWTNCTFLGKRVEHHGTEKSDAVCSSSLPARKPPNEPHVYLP
Assay: ELISA, human RANKL coated at 10 µg/ml, anti-hFc-HRP detection
Description: To test whether the antibodies generated in mice have neutralizing activity, in vitro binding assays for both mouse and human RANKL and their cognate receptors mouse RANK and human RANK were established. ELISA plates were therefore coated with 10 μg/ml of either mouse or human RANKL protein and incubated with serial dilutions of a recombinant mouse RANK-hFc fusion protein or a recombinant human RANK-hFc fusion protein, respectively. Bound protein was detected with a horse raddish peroxidase conjugated anti-hFc antibody. […] ELISA plates were therefore coated with either mouse or human RANKL protein at a concentration of 10 μg/ml, and co-incubated with serial dilutions of a pool of mouse sera from day 35 and 0.35 nM mouse or human RANK-hFc fusion protein, respectively. Binding of receptor to immobilized RANKL protein was detected with horse raddish peroxidase conjugated anti-hFc antibody.

B1: human RANKL protein (ligand, UniProt O14788 140-317, looked up)
chain: IRAEKAMVDGSWLDLAKRSKLEAQPFAHLTINATDIPSGSHKVSLSSWYHDRGWAKISNMTFSNGKLIVNQDGFYYLYANICFRHHETSGDLATEYLQLMVYVTKTSIKIPSSHTLMKGGSTKYWSGNSEFHFYSINVGGFFKLRSGEEISIEVSNPSLLDPDQDATYFGAFKVRDID
notes: Coated on ELISA plates; also called hRANKL
B1: binds.
